This data set concerns the target phosphotyrosine peptide (Upstate).

B1: PTP1B (from Upstate) (protein)
chain: MEMEKEFEQIDKSGSWAAIYQDIRHEASDFPCRVAKLPKNKNRNRYRDVSPFDHSRIKLHQEDNDYINASLIKMEEAQRSYILTQGPLPNTCGHFWEMVWEQKSRGVVMLNRVMEKGSLKCAQYWPQKEEKEMIFEDTNLKLTLISEDIKSYYTVRQLELENLTTQETREILHFHYTTWPDFGVPESPASFLNFLFKVRESGSLSPEHGPVVVHCSAGIGRSGTFCLADTCLLLMDKRKDPSSVDIKKVLLEMRKFRMGLIQTADQLRFSYLAVIEGAKFIMGDSSVQDQWKELSHEDLEPPPEHIPPPPRPPKRILEPHN
B1: the “in vitro phosphatase activity (malachite green, released phosphate)” value (shortened to “in vitro phosphatase activity”) is “PTP1B, a bona fide PTPase, dephosphorylated p-Tyr exclusively”.

B2: GST-tagged recombinant PTPsigma catalytic fragment (PTPRS-CTF; BC104812 aa1156-1501) (protein)
chain: IVMVPLRKSRGGQFLTPLGSPEDMDLEELIQDISRLQRRSLRHSRQLEVPRPYIAARFSVLPPTFHPGDQKQYGGFDNRGLEPGHRYVLFVLAVLQKSEPTFAASPFSDPFQLDNPDPQPIVDGEEGLIWVIGPVLAVVFIICIVIAILLYKNKPDSKRKDSEPRTKCLLNNADLAPHHPKDPVEMRRINFQTPDSGLRSPLREPGFHFESMLSHPPIPIADMAEHTERLKANDSLKLSQEYESIDPGQQFTWEHSNLEVNKPKNRYANVIAYDHSRVILQPIEGIMGSDYINANYVDGYRCQNAYIATQGPLPETFGDFWRMVWEQRSATIVMMTRLEEKSRIKC
With B2, the “in vitro phosphatase activity” value is “exhibiting significant activity against a tyrosine-phosphorylated peptide (p-Tyr)”.

B3: GST-tagged recombinant full-length MTMR6 (NM-004685.2) (protein)
chain: MEHIRTTKVEQVKLLDRFSTSNKSLTGTLYLTATHLLFIDSHQKETWILHHHIASVEKLALTTSGCPLVIQCKNFRTVHFIVPRERDCHDIYNSLLQLSKQAKYEDLYAFSYNPKQNDSERLQGWQLIDLAEEYKRMGVPNSHWQLSDANRDYKICETYPRELYVPRIASKPIIVGSSKFRSKGRFPVLSYYHQDKEAAICRCSQPLSGFSARCLEDEHLLQAISKANPVNRYMYVMDTRPKLNAMANRAAGKGYENEDNYSNIRFQFVGIENIHVMRSSLQKLLEVNGTKGLSVNDFYSGLESSGWLRHIKAVMDAAIFLAKAITVENASVLVHCSDGWDRTSQVCSLGSLLLDSYYRTIKGFMVLIEKDWISFGHKFSERCGQLDGDPKEVSPVFTQFLECVWHLTEQFPQAFEFSEAFLLQIHEHIHSCQFGNFLGNCQKEREELKLKEKTYSLWPFLLEDQKKYLNPLYSSESHRFTVLEPNTVSFNFKFWRNMYHQFDRTLHPRQSVFNIIMNMNEQNKQLEKDIKDLESKIKQRKNKQTDGILTKELLHSVHPESPNLKTSLCFKEQTLLPVNDALRTIEGSSPADNRYSEYAEEFSKSEPAVVSLEYGVARMTC
B3: the “in vitro phosphatase activity” value is on record as “only negligible activity against p-Tyr”.
